Assay: Recombinant DXR activity, non-radioactive kinetic assay (oxidation of NADPH monitored at 340 nm)
Format: biochemical
Conditions: Ni-Agarose purified His-tagged protein expressed in E. coli, 100 mM Hepes pH 7.5, 1 mM MnCl2, NADPH, 0.3 mM DXP, room temperature
Description: Recombinant His-tagged DXR proteins were purified from E. coli using Ni-Agarose. Recombinant DXR activity was measured using a non-radioactive kinetic assay (Kuzuyama et al. (1998) Tetrahedron Lett 39:7913-7916). The assay mixture contained the following: 100 mM Hepes (pH 7.5); 1 mM MnCl2; […] NADPH, DXR, and 0.3 mM 1-deoxy-D-xylulose […] (DXP). The final volume of the reaction mixture was 200 μl and the assay was initiated by adding the substrate. The assay was run at room temperature on a plate reader. The oxidation of NADPH was monitored at 340 nm. The DXR activity was determined from the slope of the kinetic curve.

| Molecule | DXR activity (oxidation of NADPH) |
| --- | --- |
| Synechocystis His-DXR: His-tagged Synechocystis 1-deoxy-D-xylulose 5-phosphate reductoisomerase (protein, His-tag; His-tagged Synechocystis 1-deoxy-D-xylulose 5-phosphate reductoisomerase) MGSSHHHHHHSSGLVPRGSHMVKRISILGSTGSIGTQTLDIVTHHPDAFQVVGLAAGGNVALLAQQVAEFRPEIVAIRQAEKLEDLKAAVAELTDYQPMYVVGEEGVVEVARYGDAESVVTGIVGCAGLLPTMAAIAAGKDIALANKETLIAGAPVVLPLVEKMGVKLLPADSEHSAIFQCLQGVPEGGLRRIILTASGGAFRDLPVERLPFVTVQDALKHPNWSMGQKITIDSATLMNKGLEVIEAHYLFGLDYDHIDIVIHPQSIIHSLIEVQDTSVLAQLGWPDMRLPLLYALSWPERIYTDWEPLDLVKAGSLSFREPDHDKYPCMQLAYGAGRAGGAMPAVLNAANEQAVALFLQEKISFLDIPRLIEKTCDLYVGQNTASPDLETILAADQWARRTVLENSACVATRP | DXR activity was detected |
| truncated rice His-DXR (SEQ ID NO:30): rice DXR protein in which the first fifty-one amino acids have been removed and replaced with a twenty amino acid His-tag (protein, His-tag; His-tagged truncated rice 1-deoxy-D-xylulose 5-phosphate reductoisomerase) MGSSHHHHHHSSGLVPRGSHMQQAPPPAWPGRAVVEPGRRSWDGPKPISIVGSTGSIGTQTLDIVAENPDKFRVVALAAGSNVTLLADQVKTFKPKLVAVRNESLVDELKEALADCDWKPEIIPGEQGVIEVARHPDAVTVVTGIVGCAGLKPTVAAIEAGKDIALANKETLIAGGPFVLPLAQKHKVKILPADSEHSAIFQCIQGLPEGALRRIILTASGGAFRDWPVDKLKEVKVADALKHPNWNMGKKITVDSATLFNKGLEVIEAHYLFGAEYDDIEIVIHPQSIIHSMIETQDSSVLAQLGWPDMRIPTLYTMSWPDRIYCSEVTWPRLDLCKLGSLTFKAPDNVKYPSMDLAYAAGRAGGTMTGVLSAANEKAVELFIDEKIGYLDIFKVVELTCDAHRNELVTRPSLEEIIHYDLWAREYAASLQPSTGLSPVPV | no oxidation of NADPH was detected |
| second truncated rice His-DXR (SEQ ID NO:31): rice DXR protein in which the first seventy-six amino acids have been removed and replaced with a twenty-one amino acid His-tag (protein, His-tag; His-tagged truncated rice 1-deoxy-D-xylulose 5-phosphate reductoisomerase) MGSSHHHHHHSSGLVPRGSHMKPISIVGSTGSIGTQTLDIVAENPDKFRVVALAAGSNVTLLADQVKTFKPKLVAVRNESLVDELKEALADCDWKPEIIPGEQGVIEVARHPDAVTVVTGIVGCAGLKPTVAAIEAGKDIALANKETLIAGGPFVLPLAQKHKVKILPADSEHSAIFQCIQGLPEGALRRIILTASGGAFRDWPVDKLKEVKVADALKHPNWNMGKKITVDSATLFNKGLEVIEAHYLFGAEYDDIEIVIHPQSIIHSMIETQDSSVLAQLGWPDMRIPTLYTMSWPDRIYCSEVTWPRLDLCKLGSLTFKAPDNVKYPSMDLAYAAGRAGGTMTGVLSAANEKAVELFIDEKIGYLDIFKVVELTCDAHRNELVTRPSLEEIIHYDLWAREYAASLQPSTGLSPVPV | no oxidation of NADPH was detected |
| E. coli His-DXR: His-tagged E. coli 1-deoxy-D-xylulose 5-phosphate reductoisomerase (protein, His tag; His-tagged E. coli 1-deoxy-D-xylulose 5-phosphate reductoisomerase) MGSSHHHHHHSSGLVPRGSHMKQLTILGSTGSIGCSTLDVVRHNPEHFRVVALVAGKNVTRMVEQCLEFSPRYAVMDDEASAKLLKTMLQQQGSRTEVLSGQQAACDMAALEDVDQVMAAIVGAAGLLPTLAAIRAGKTILLANKESLVTCGRLFMDAVKQSKAQLLPVDSEHNAIFQSLPQPIQHNLGYADLEQNGVVSILLTGSGGPFRETPLRDLATMTPDQACRHPNWSMGRKISVDSATMMNKGLEYIEARWLFNASASQMEVLIHPQSVIHSMVRYQDGSVLAQLGEPDMRTPIAHTMAWPNRVNSGVKPLDFCKLSALTFAAPDYDRYPCLKLAMEAFEQGQAATTALNAANEITVAAFLAQQIRFTDIAALNLSVLEKMDMREPQCVDDVLSVDASAREVARKEVMRLAS | DXR activity was detected |
